Results from US20200207822A1, “PEPTIDE INHIBITORS OF INTERLEUKIN-23 RECEPTOR AND THEIR USE TO TREAT INFLAMMATORY DISEASES” (Protagonist Therapeutics, Inc., priority 2017, published 2020).
Positions of bridges follow the written chain, without caps; N, C: chain ends. Non-standard residues stand in square brackets, D forms with d. Groups on a side chain read outwards from the residue. 2Nal = N[C@@H](Cc1ccc2ccccc2c1)C(=O)O; AEF = NCCOc1ccc(C[C@H](N)C(=O)O)cc1; αMeL = CC(C)C[C@](C)(N)C(=O)O; Pen = CC(C)(S)[C@H](N)C(=O)O; dAbu = CC[C@@H](N)C(=O)O; Thp = NC1(C(=O)O)CCOCC1; Abu = CC[C@H](N)C(=O)O

B1: SEQ ID NO 137 (peptide)
peptide: Ac-[Pen]NTWQ[dAbu][AEF][2Nal][αMeL]K(Ac)NN-NH2
modifications: thioether 1-6
B2: SEQ ID NO 236 (peptide)
peptide: Ac-[dK]([Pro-Ac])[Pen]NTWK(Ac)[Pen][AEF][2Nal][αMeL]K(Ac)NN-NH2
modifications: disulfide 2-7 (inferred)
B3: SEQ ID NO 170 (peptide)
peptide: XNTWKXXXXKNN
modifications: Ac-[Pen]-NTW-[Lys(Ac)]-[Pen]-[Phe[4-(2-aminoethoxy)]-[2-Nal]-[α-MeLeu]-[Lys(Ac)]-NN-NH2
B4: SEQ ID NO 175 (peptide)
peptide: XNTWQXXXXKNNX
modifications: Ac-[Pen]-NTWQ-[Pen]-[Phe[4-(2-aminoethoxy)]-[2-Nal]-[α-MeLeu]-[Lys(Ac)]-NN-[(D)Ile]-NH2
B5: SEQ ID NO 161 (peptide)
peptide: XNTWQXXXXKNNR
modifications: Ac-[Pen]-NTWQ-[Pen]-[Phe[4-(2-aminoethoxy)]-[2-Nal]-[α-MeLeu]-[Lys(Ac)]-NNR-NH2
B6: SEQ ID NO 231 (peptide)
peptide: Ac-[dK]([Phe-Ac])[Pen]NTWK(Ac)[Pen][AEF][2Nal][αMeL]K(Ac)NN-NH2
modifications: disulfide 2-7 (inferred)
B7: SEQ ID NO 230 (peptide)
peptide: Ac-[dK]([Glu-Ac])[Pen]NTWK(Ac)[Pen][AEF][2Nal][αMeL]K(Ac)NN-NH2
modifications: disulfide 2-7 (inferred)
B8: SEQ ID NO 196 (peptide)
peptide: XNTWKXXXXKNNX
modifications: Ac-[Pen]-NTW-[Lys(Ac)]-[Pen]-[Phe[4-(2-aminoethoxy)]-[2-Nal]-[α-MeLeu]-[Lys(Ac)]-NN-[β-Ala]-NH2
B9: SEQ ID NO 177 (peptide)
peptide: XNTWQXXXXKNNX
modifications: Ac-[Pen]-NTWQ-[Pen]-[Phe[4-(2-aminoethoxy)]-[2-Nal]-[α-MeLeu]-[Lys(Ac)]-NN-[(D)Gln]-NH2
B10: SEQ ID NO 233 (peptide)
peptide: Ac-[dK]([Ser-Ac])[Pen]NTWK(Ac)[Pen][AEF][2Nal][αMeL]K(Ac)NN-NH2
modifications: disulfide 2-7 (inferred)
B11: SEQ ID NO 195 (peptide)
peptide: XNTWKXXXXKNNG
modifications: Ac-[Pen]-NTW-[Lys(Ac)]-[Pen]-[Phe[4-(2-aminoethoxy)]-[2-Nal]-[α-MeLeu]-[Lys(Ac)]-NNG-NH2
B12: SEQ ID NO 229 (peptide)
peptide: Ac-K([Pro-Ac])[Pen]NTWK(Ac)[Pen][AEF][2Nal][αMeL]K(Ac)NN-NH2
modifications: disulfide 2-7 (inferred)
B13: SEQ ID NO 227 (peptide)
peptide: Ac-K([Arg-Ac])[Pen]NTWK(Ac)[Pen][AEF][2Nal][αMeL]K(Ac)NN-NH2
modifications: disulfide 2-7 (inferred)
B14: SEQ ID NO 235 (peptide)
peptide: Ac-[dK]([Leu-Ac])[Pen]NTWK(Ac)[Pen][AEF][2Nal][αMeL]K(Ac)NN-NH2
modifications: disulfide 2-7 (inferred)
B15: SEQ ID NO 164 (peptide)
peptide: XNTWQXXXXKNNQ
modifications: Ac-[Pen]-NTWQ-[Pen]-[Phe[4-(2-aminoethoxy)]-[2-Nal]-[α-MeLeu]-[Lys(Ac)]-NNQ-NH2
B16: SEQ ID NO 234 (peptide)
peptide: Ac-[dK]([Arg-Ac])[Pen]NTWK(Ac)[Pen][AEF][2Nal][αMeL]K(Ac)NN-NH2
modifications: disulfide 2-7 (inferred)
B17: SEQ ID NO 198 (peptide)
peptide: XNTWKXXXXKNNX
modifications: Ac-[Pen]-NTW-[Lys(Ac)]-[Pen]-[Phe[4-(2-aminoethoxy)]-[2-Nal]-[α-MeLeu]-[Lys(Ac)]-NN-[Sar]-NH2
B18: SEQ ID NO 218 (peptide)
peptide: XNTWKXXXXKNNX
modifications: Ac-[Pen]-NTW-[Lys(Ac)]-[Pen]-[Phe[4-(2-aminoethoxy)]-[2-Nal]-[α-MeLeu]-[Lys(Ac-(D)Asn)]-NN-[(D)Ile]-NH2
B19: SEQ ID NO 225 (peptide)
peptide: Ac-K([Tyr-Ac])[Pen]NTWK(Ac)[Pen][AEF][2Nal][αMeL]K(Ac)NN-NH2
modifications: disulfide 2-7 (inferred)
B20: SEQ ID NO 224 (peptide)
peptide: Ac-K([Phe-Ac])[Pen]NTWK(Ac)[Pen][AEF][2Nal][αMeL]K(Ac)NN-NH2
modifications: disulfide 2-7 (inferred)
B21: SEQ ID NO 138 (peptide)
peptide: XXQTWQCXXXENN
modifications: Ac-[(D)Arg]-cyclo[[Abu]-QTWQC]-[Phe[4-(2-aminoethoxy)]-[2-Nal]-[α-MeLeu]-ENN-NH2
B22: SEQ ID NO 184 (peptide)
peptide: XNTWQXXXXKNNX
modifications: (Ac-[Pen]-NTWQ-[Pen]-[Phe(4-CONH2)]-[2-Nal]-[α-MeLeu]-[Lys(Ac)]-NN-[(D)Lys]-NH2)2-DIG
B23: SEQ ID NO 174 (peptide)
peptide: XNTWQXXXXKNNX
modifications: Ac-[Pen]-NTWQ-[Pen]-[Phe[4-(2-aminoethoxy)]-[2-Nal]-[α-MeLeu]-[Lys(Ac)]-NN-[(D)Arg]-NH2
B24: SEQ ID NO 165 (peptide)
peptide: XNTWQXXXXKNNS
modifications: Ac-[Pen]-NTWQ-[Pen]-[Phe[4-(2-aminoethoxy)]-[2-Nal]-[α-MeLeu]-[Lys(Ac)]-NNS-NH2
B25: SEQ ID NO 223 (peptide)
peptide: Ac-K([Glu-Ac])[Pen]NTWK(Ac)[Pen][AEF][2Nal][αMeL]K(Ac)NN-NH2
modifications: disulfide 2-7 (inferred)
B26: SEQ ID NO 232 (peptide)
peptide: Ac-[dK]([Tyr-Ac])[Pen]NTWK(Ac)[Pen][AEF][2Nal][αMeL]K(Ac)NN-NH2
modifications: disulfide 2-7 (inferred)
B27: SEQ ID NO 148 (peptide)
peptide: XXQTWQCXXXENN
modifications: Ac-[(D)Arg]-cyclo[[Abu]-QTWQC]-[Phe[4-(2-aminoethoxy)]-[2-Nal]-[Aib]-ENN-NH2
B28: SEQ ID NO 147 (peptide)
peptide: XXQTWQCXXXENN
modifications: Ac-[(D)Arg]-cyclo[[Abu]-QTWQC]-[Phe[4-(2-aminoethoxy)]-[2-Nal]-[3-cyclohexyl-Ala]-ENN-NH2
B29: SEQ ID NO 153 (peptide)
peptide: XXQTWKCXXXENN
modifications: Ac-[(D)Arg]-cyclo[[Abu]-QTW-Lys(isoGlu-Palm)-C]-[Phe[4-(2-aminoethoxy)]-[2-Nal]-[4-amino-4-carboxy-tetrahydropyran]-ENN-NH2
B30: SEQ ID NO 159 (peptide)
peptide: XNTWQXXXXKNNY
modifications: Ac-[Pen]-NTWQ-[Pen]-[Phe[4-(2-aminoethoxy)]-[2-Nal]-[α-MeLeu]-[Lys(Ac)]-NNY-NH2
B31: SEQ ID NO 226 (peptide)
peptide: Ac-K([Ser-Ac])[Pen]NTWK(Ac)[Pen][AEF][2Nal][αMeL]K(Ac)NN-NH2
modifications: disulfide 2-7 (inferred)
B32: SEQ ID NO 228 (peptide)
peptide: Ac-K([Leu-Ac])[Pen]NTWK(Ac)[Pen][AEF][2Nal][αMeL]K(Ac)NN-NH2
modifications: disulfide 2-7 (inferred)
B33: SEQ ID NO 197 (peptide)
peptide: XNTWKXXXXKNNX
modifications: Ac-[Pen]-NTW-[Lys(Ac)]-[Pen]-[Phe[4-(2-aminoethoxy)]-[2-Nal]-[α-MeLeu]-[Lys(Ac)]-NN-[Ahx]-NH2

How the values were obtained:
[1] = test system: IL-23R-expressing DB cells stimulated with IL-23 (pSTAT3 levels); assay: DB cells IL23R pSTAT3 cell assay (Cisbio HTRF pSTAT3); format: cell-based, human; settings: IL-23 0.5 nM, 30 minutes at 37° C.
Description: Human ELISA indicates the IL23-IL23R competitive binding assay described below, Rat ELISA indicates the rat IL-23R competitive binding ELISA assay described below, and pStat3HTRF indicates the DB cells IL-23R pSTAT3 cell assay described below. The peptides depicted in Table E1 are cyclized via a disulfide bridge formed between two Pen residues in these peptides. The peptides depicted in Table E2 are cyclized via a thioether bond between the indicated amino acid residues. Table E2 provides an illustrative structure depicting thioether cyclization, which is indicated in the table by the term “cyclo,” with the cyclic region bracketed immediately following the term “cyclo.” For certain peptides, the residue Abu is present where indicated, whereas in other embodiments, e.g., those related to the non-cyclized form, the Abu may be referred to as a hSer(Cl) or homoSer residue.
DB Cells IL23R pSTAT3 Cell Assay
IL-23 plays a central role in supporting and maintaining Th17 differentiation in vivo. […] This cell assay examines the levels of pSTAT3 in IL-23R-expressing DB cells when stimulated with IL-23 in the presence of test compounds.

[2] = molecular target: T1, interleukin-23 receptor (IL-23R) (human, UniProt Q5VWK5 24-629); assay: cell-based or functional assay
T1 sequence (looked up): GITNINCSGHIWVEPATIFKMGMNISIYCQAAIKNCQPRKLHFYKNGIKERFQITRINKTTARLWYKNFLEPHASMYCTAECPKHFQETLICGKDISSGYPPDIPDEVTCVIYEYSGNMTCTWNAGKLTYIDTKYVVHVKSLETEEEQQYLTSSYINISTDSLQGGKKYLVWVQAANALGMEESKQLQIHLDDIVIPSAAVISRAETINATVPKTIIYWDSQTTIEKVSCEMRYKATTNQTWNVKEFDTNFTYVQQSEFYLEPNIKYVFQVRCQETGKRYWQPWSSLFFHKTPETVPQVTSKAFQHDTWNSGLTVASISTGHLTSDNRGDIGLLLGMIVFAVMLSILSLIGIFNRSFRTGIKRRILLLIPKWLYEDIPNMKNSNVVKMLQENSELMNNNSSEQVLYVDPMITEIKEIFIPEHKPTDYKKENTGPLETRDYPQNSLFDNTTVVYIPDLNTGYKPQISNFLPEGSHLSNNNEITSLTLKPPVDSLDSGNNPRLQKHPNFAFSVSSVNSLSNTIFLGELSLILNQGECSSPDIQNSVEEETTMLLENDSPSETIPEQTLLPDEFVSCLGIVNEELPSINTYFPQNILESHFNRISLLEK

Molecule	IC50, pStat3 HTRF (nM) [2] [nM]	also measured
8 (Ac-[Pen]NTWQ[Pen][AEF]W[Thp]K(Ac)NN-NH2; disulfide 1-6 (inferred)) [compound 8]		IC50 ([1]; Table E1, Pen-Pen disulfide peptides): 1 to 10 nM
73 (XXQTWQCXXXEND; MOD_RES (1)..(1) D-form arginine; MOD_RES (2)..(2) Abu; (2)..(7) residues cyclosized; MOD_RES (8)..(8) 4-(2-aminoethoxy)-L-phenylalanine; MOD_RES (9)..(9) L-2-Napthylalanine; MOD_RES (10)..(10) 4-amino-4-carboxy-tetrahydropyran) [compound 73]		IC50 ([1]; Table E2, thioether peptides): 1 to 10 nM
74 (XXQTWQCXXXEDN; MOD_RES (1)..(1) D-form arginine; MOD_RES (2)..(2) Abu; (2)..(7) residues cyclosized; MOD_RES (8)..(8) 4-(2-aminoethoxy)-L-phenylalanine; MOD_RES (9)..(9) L-2-Napthylalanine; MOD_RES (10)..(10) 4-amino-4-carboxy-tetrahydropyran) [compound 74]		IC50 ([1]; Table E2, thioether peptides): 10 to 100 nM
75 (XXQTWECXXXENN; MOD_RES (1)..(1) D-form arginine; MOD_RES (2)..(2) Abu; (2)..(7) residues cyclosized; MOD_RES (8)..(8) 4-(2-aminoethoxy)-L-phenylalanine; MOD_RES (9)..(9) L-2-Napthylalanine; MOD_RES (10)..(10) 4-amino-4-carboxy-tetrahydropyran) [compound 75]		IC50 ([1]; Table E2, thioether peptides): 1 to 10 nM
77 (Ac-[dR][Abu]QTWQC[AEF][2Nal][Thp]EDD-NH2; thioether 2-7) [compound 77]		IC50 ([1]; Table E2, thioether peptides): 10 to 100 nM
B1	> 100	
B2	< 1	
B3	< 1	
B4	< 1	
B5	< 1	
B6	< 1	
B7	< 1	
B8	< 1	
B9	< 1	
B10	< 1	
B11	< 1	
B12	< 1	
B13	< 1	
B14	< 1	

Molecule	IC50, pStat3 HTRF (nM) [2] [nM]	also measured
B15	< 1	
B16	< 1	
B17	< 1	
B18	< 1	
B19	< 1	
B20	< 1	
B21	< 1	
B22	< 1	
B23	< 1	
B24	< 1	
B25	< 1	
B26	< 1	
B27	< 1	
B28	< 1	
B29	> 100	
B30	< 1	
B31	< 1	
B32	< 1	
B33	< 1	
